Series [1] has as its target galectin-3 A33G and H64P double mutant, P17931.
Series [2] deals with galectin-3 H64P mutant, P17931.
The target of series [3] is human wild type galectin-3, P17931.
Series [4] concerns the target galectin-3 A33G mutant, P17931.

Chain of human wild type galectin-3, P17931 (P17931 whole entry): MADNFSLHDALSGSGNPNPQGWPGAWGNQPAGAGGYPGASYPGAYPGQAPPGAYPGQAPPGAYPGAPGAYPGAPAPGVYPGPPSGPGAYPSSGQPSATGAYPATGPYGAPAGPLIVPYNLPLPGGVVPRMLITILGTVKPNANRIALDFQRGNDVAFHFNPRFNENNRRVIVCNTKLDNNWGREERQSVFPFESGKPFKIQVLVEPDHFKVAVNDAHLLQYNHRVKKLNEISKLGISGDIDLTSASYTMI
Chain of galectin-3 A33G mutant, P17931 (P17931 whole entry A33G): as the sequence (P17931 whole entry) above, with A33G counted along it
Chain of galectin-3 H64P mutant, P17931 (P17931 whole entry, looked up, stated change not applied): as the sequence (P17931 whole entry) above
Chain of galectin-3 A33G and H64P double mutant, P17931 (P17931 whole entry, looked up, stated change not applied): as the sequence (P17931 whole entry) above

B1: activated human recombinant MMP-2 (protein)
chain: YNFFPRKPKWDKNQITYRIIGYTPDLDPETVDDAFARAFQVWSDVTPLRFSRIHDGEADIMINFGRWEHGDGYPFDGKDGLLAHAFAPGTGVGGDSHFDDDELWTLGEGQVVRVKYGNADGEYCKFPFLFNGKEYNSCTDTGRSDGFLWCSTTYNFEKDGKYGFCPHEALFTMGGNAEGQPCKFPFRFQGTSYDSCTTEGRTDGYRWCGTTEDYDRDKKYGFCPETAMSTVGGNSEGAPCVFPFTFLGNKYESCTSAGRSDGKMWCATTANYDDDRKWGFCPDQGYSLFLVAAHEFGHAMGLEHSQDPGALMAPIYTYTKNFRLSQDDIKGIQELYGASPDIDLGTGPTPTLGPVTPEICKQDIVFDGIAQIRGEIFFFKDRFIWRTVTPRDKPMGPLLVATFWPELPEKIDAVYEAPQEEKAVFFAGNEYWIYSASTLERGYPKPLTSLGLPPDVQRVDAAFNWSKNKKTYIFAGDKFWRYNEVKKKMDPGFPKLIADAWNAIPDNLDAVVDLQGGGHSYFFKGAYYLKLENQSLKSVKFGSIKSDWLGC
Consider B1, for which the “cleavage of recombinant galectin-3 (Western blot)” value (“cleavage” below) in series [1] is “Double mutation at A33G and H64P showed complete resistance to cleavage by both MMP-2 and MMP-9”; in series [2], “The H64P mutant produced a ~27-kDa polypeptide upon incubation with MMP-2 indicating that it is cleaved at Gly32-Ala33”; in series [3] it was “Wild type and A33G galectin-3 produced a polypeptide of ~22 kDa consistent with cleavage at Ala62-Tyr63”; in series [4] it was “Wild type and A33G galectin-3 produced a polypeptide of ~22 kDa consistent with cleavage at Ala62-Tyr63”.

B2: human recombinant pro-MMP-9 (protein)
chain: APRQRQSTLVLFPGDLRTNLTDRQLAEEYLYRYGYTRVAEMRGESKSLGPALLLLQKQLSLPETGELDSATLKAMRTPRCGVPDLGRFQTFEGDLKWHHHNITYWIQNYSEDLPRAVIDDAFARAFALWSAVTPLTFTRVYSRDADIVIQFGVAEHGDGYPFDGKDGLLAHAFPPGPGIQGDAHFDDDELWSLGKGVVVPTRFGNADGAACHFPFIFEGRSYSACTTDGRSDGLPWCSTTANYDTDDRFGFCPSERLYTQDGNADGKPCQFPFIFQGQSYSACTTDGRSDGYRWCATTANYDRDKLFGFCPTRADSTVMGGNSAGELCVFPFTFLGKEYSTCTSEGRGDGRLWCATTSNFDSDKKWGFCPDQGYSLFLVAAHEFGHALGLDHSSVPEALMYPMYRFTEGPPLHKDDVNGIRHLYGPRPEPEPRPPTTTTPQPTAPPTVCPTGPPTVHPSERPTAGPTGPPSAGPTGPPTAGPSTATTVPLSPVDDACNVNIFDAIAEIGNQLYLFKDGKYWRFSEGRGSRPQGPFLIADKWPALPRKLDSVFEERLSKKLFFFSGRQVWVYTGASVLGPRRLDKLGLGADVAQVTGALRSGRGKMLLFSGRRLWRFDVKAQMVDPRSASEVDRMFPGVPLDTHDVFQYREKAYFCQDRFYWRVSSRSELNQVDQVGYVTYDILQCPED
Consider B2, for which the “cleavage” value in series [3] is given as “The cleavage products were not seen when galectin-3 was incubated alone or with pro-MMPs”.

B3: activated human recombinant MMP-9 (protein)
chain: MRTPRCGVPDLGRFQTFEGDLKWHHHNITYWIQNYSEDLPRAVIDDAFARAFALWSAVTPLTFTRVYSRDADIVIQFGVAEHGDGYPFDGKDGLLAHAFPPGPGIQGDAHFDDDELWSLGKGVVVPTRFGNADGAACHFPFIFEGRSYSACTTDGRSDGLPWCSTTANYDTDDRFGFCPSERLYTQDGNADGKPCQFPFIFQGQSYSACTTDGRSDGYRWCATTANYDRDKLFGFCPTRADSTVMGGNSAGELCVFPFTFLGKEYSTCTSEGRGDGRLWCATTSNFDSDKKWGFCPDQGYSLFLVAAHEFGHALGLDHSSVPEALMYPMYRFTEGPPLHKDDVNGIRHLYGPRPEPEPRPPTTTTPQPTAPPTVCPTGPPTVHPSERPTAGPTGPPSAGPTGPPTAGPSTATTVPLSPVDDACNVNIFDAIAEIGNQLYLFKDGKYWRFSEGRGSRPQGPFLIADKWPALPRKLDSVFEERLSKKLFFFSGRQVWVYTGASVLGPRRLDKLGLGADVAQVTGALRSGRGKMLLFSGRRLWRFDVKAQMVDPRSASEVDRMFPGVPLDTHDVFQYREKAYFCQDRFYWRVSSRSELNQVDQVGYVTYDILQCPED
As for B3, the “cleavage” value in series [1] was “Double mutation at A33G and H64P showed complete resistance to cleavage by both MMP-2 and MMP-9”; in series [2] it was “MMP-9 did not cleave the H64P mutant”; in series [3], “Wild type and A33G galectin-3 produced a polypeptide of ~22 kDa consistent with cleavage at Ala62-Tyr63”; in series [4], “Wild type and A33G galectin-3 produced a polypeptide of ~22 kDa consistent with cleavage at Ala62-Tyr63”.

B4: human recombinant pro-MMP-2 (protein)
chain: APSPIIKFPGDVAPKTDKELAVQYLNTFYGCPKESCNLFVLKDTLKKMQKFFGLPQTGDLDQNTIETMRKPRCGNPDVANYNFFPRKPKWDKNQITYRIIGYTPDLDPETVDDAFARAFQVWSDVTPLRFSRIHDGEADIMINFGRWEHGDGYPFDGKDGLLAHAFAPGTGVGGDSHFDDDELWTLGEGQVVRVKYGNADGEYCKFPFLFNGKEYNSCTDTGRSDGFLWCSTTYNFEKDGKYGFCPHEALFTMGGNAEGQPCKFPFRFQGTSYDSCTTEGRTDGYRWCGTTEDYDRDKKYGFCPETAMSTVGGNSEGAPCVFPFTFLGNKYESCTSAGRSDGKMWCATTANYDDDRKWGFCPDQGYSLFLVAAHEFGHAMGLEHSQDPGALMAPIYTYTKNFRLSQDDIKGIQELYGASPDIDLGTGPTPTLGPVTPEICKQDIVFDGIAQIRGEIFFFKDRFIWRTVTPRDKPMGPLLVATFWPELPEKIDAVYEAPQEEKAVFFAGNEYWIYSASTLERGYPKPLTSLGLPPDVQRVDAAFNWSKNKKTYIFAGDKFWRYNEVKKKMDPGFPKLIADAWNAIPDNLDAVVDLQGGGHSYFFKGAYYLKLENQSLKSVKFGSIKSDWLGC
Regarding B4, the “cleavage” value in series [3] was “The cleavage products were not seen when galectin-3 was incubated alone or with pro-MMPs”.
